Test results from patent publication US20250136696A1 (HARBOUR BIOMED SHANGHAI, published 2025).

T1: B7-H6 /NCR3LG1 protein, human, recombinant (Fc tag) (Sino Biological, 16140-H02H) (human, UniProt Q68D85 25-262)
T1 construct: Bought
T1 sequence (looked up): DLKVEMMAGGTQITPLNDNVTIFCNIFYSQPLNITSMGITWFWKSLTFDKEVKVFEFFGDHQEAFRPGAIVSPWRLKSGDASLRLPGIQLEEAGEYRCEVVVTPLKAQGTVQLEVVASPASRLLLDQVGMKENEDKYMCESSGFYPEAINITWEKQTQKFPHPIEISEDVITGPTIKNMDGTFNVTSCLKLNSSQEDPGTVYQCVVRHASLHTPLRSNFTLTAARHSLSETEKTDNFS

T2: human B7-H7 on the cell surface (human, UniProt Q9UM44 23-414)
T2 construct: whole, on cells; also called hB7-H7; hu B7-H7
T2 sequence (looked up): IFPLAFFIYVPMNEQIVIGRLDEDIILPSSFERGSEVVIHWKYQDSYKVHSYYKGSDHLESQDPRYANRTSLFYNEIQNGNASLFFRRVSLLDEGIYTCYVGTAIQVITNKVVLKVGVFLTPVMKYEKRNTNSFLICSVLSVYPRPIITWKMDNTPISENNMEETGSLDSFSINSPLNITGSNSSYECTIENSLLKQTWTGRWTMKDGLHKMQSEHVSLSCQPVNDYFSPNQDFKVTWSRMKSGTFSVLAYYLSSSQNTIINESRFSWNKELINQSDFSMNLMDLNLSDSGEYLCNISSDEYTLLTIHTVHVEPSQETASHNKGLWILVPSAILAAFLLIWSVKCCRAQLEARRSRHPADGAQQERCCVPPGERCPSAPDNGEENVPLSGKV


Key:
[1] = molecular target: T1, B7-H6 /NCR3LG1 protein, human, …; assay: ELISA on coated B7 family protein
Protocol: (§1) B7 family proteins (see Table 7 for details) were respectively diluted to […] with PBS, added into a 96-well plate (Corning, #9018) at 100 μl/well, and incubated at 4° C. overnight. After the liquid was discarded, the plate was washed 3 times with a PBST buffer (pH 7.4, containing 0.05% tween-20), 250 μl of blocking solution containing 2% BSA was added, and the plate was incubated for 1 hour at 37° C. The blocking solution was discarded, the plate was washed 3 times with PBST buffer (pH 7.4, containing 0.05% Tween-20), the antigen-binding protein to be tested was diluted to 2 concentrations of 10 nM and 1 nM, 100 μl of the diluted antigen-binding protein was added to each well, and the plate was incubated for 1 hour at 37° C., with the isotype antibody as the control. After the plate was washed 3 times with PBST buffer (pH 7.4, containing 0.05% Tween-20), goat anti-human HRP secondary antibody (Invitrogen, #A18805) diluted 5000 times was added, and the plate was incubated at 37° C. for 1 hour in the dark. After the plate was washed 3 times with PBST buffer (pH 7.4, containing 0.05% tween-20), TMB (Biopanda, #TMB-S-003) was added at 100 μl/well, and the plate was placed at room temperature for about 30 minutes in the dark; and a stop solution (BBI life sciences, #E661006-0200) was added to each well at 50 μl/well to stop the reaction, and the absorbance at 450 nm (OD450) was determined in a microplate reader (PerkinElemer, #Enspire).

[2] = molecular target: T3, Human PD-L1/B7-H1 protein, His tag (Acro, PD1-H5229) (human, UniProt Q9NZQ7 19-238); assay: ELISA on coated B7 family protein
T3 construct: Bought
T3 sequence (Q9NZQ7 19-238 limits assumed): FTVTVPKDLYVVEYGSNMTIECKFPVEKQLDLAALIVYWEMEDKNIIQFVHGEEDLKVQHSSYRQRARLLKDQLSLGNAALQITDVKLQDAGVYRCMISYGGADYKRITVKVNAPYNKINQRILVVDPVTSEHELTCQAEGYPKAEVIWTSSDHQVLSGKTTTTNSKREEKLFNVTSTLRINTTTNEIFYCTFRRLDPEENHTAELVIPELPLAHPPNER
Protocol: as §1

[3] = molecular target: T2, human B7-H7 on the cell surface; assay: flow cytometry, LS180 cells
Protocol: This example was intended to study the in vitro activity of H2L2 monoclonal antibodies against human B7-H7 in binding to human/cynomolgus monkey B7-H7. Since homologous molecules of B7-H7 were not present in mice, the detection was not performed. […] The cells were adjusted to a cell density of 1×10⁶ cells/mL, respectively. The cells were seeded in a 96-well V-bottom plate (Corning, #3894) at 100 μL/well, and the antibody to be tested at 2× final concentration with 3-fold concentration gradient dilution was then added at 100 μL/well. The cells were incubated at 4° C. for 2 hours in the dark. After the incubation, the cells were rinsed twice by adding pre-chilled PBS containing 2% BSA at 100 μl/well, and centrifuged at 500 g at 4° C. for 5 minutes, and the supernatant was discarded. […] The cells were washed twice by adding pre-chilled PBS containing 2% BSA at 100 μL/well, and centrifuged at 500 g at 4° C. for 5 minutes, and the supernatant was discarded. Finally, the cells were resuspended in pre-chilled PBS containing 2% BSA at 200 μL/well, and the fluorescence signal values were read using an ACEA Novocyte3000 flow cytometer.

[4] = molecular target: T2, human B7-H7 on the cell surface; assay: flow cytometry on HEK-293/hB7-H7 cells after 0-14 days in 90% human serum at 37 C
Protocol: The cells were adjusted to a cell density of 1×10⁶ cells/mL, respectively. The cells were seeded in a 96-well V-bottom plate (Corning, #3894) at 100 μL/well, and the antibody to be tested at 2× final concentration with 3-fold concentration gradient dilution was then added at 100 μL/well. The cells were incubated at 4° C. for 2 hours in the dark. After the incubation, the cells were rinsed twice by adding pre-chilled PBS containing 2% BSA at 100 μL/well, and centrifuged at 500 g at 4° C. for 5 minutes, and the supernatant was discarded. […] The cells were washed twice by adding pre-chilled PBS containing 2% BSA at 100 μL/well, and centrifuged at 500 g at 4° C. for 5 minutes, and the supernatant was discarded. Finally, the cells were resuspended in pre-chilled PBS containing 2% BSA at 200 μL/well, and the fluorescence signal values were read using an ACEA Novocyte3000 flow cytometer.

Row | binding result [1] | binding result [2] | EC50 [3] | Maximum MFI [3] | EC50 (read off the curve) [4] | Binder
1 | no binding (tested: 10 nM) | no binding (tested: 10 nM) |  |  |  | PR004260 (antibody, human IgG1, kappa, L234A L235A, Variant of PR003181; Human IgG1 with LALA mutation in Fc) heavy: not shown light: DIVMSQSPSSLAVSAGEKVTMSCKSSQSLLNSRTRKNQLAWYQQKPGQSPKLLIYWASTRESGVPDRFTGSGSGTDFTLTISSVQAEDLAVYYCKQSYNLRTFGGGTKLEIKRTVAAPSVFIFPPSDEQLKSGTASVVCLLNNFYPREAKVQWKVDNALQSGNSQESVTEQDSKDSTYSLSSTLTLSKADYEKHKVYACEVTHQGLSSPVTKSFNRGEC
2 |  |  | 2.2 nM | 21800 MFI |  | PR003264 (antibody, human IgG1, kappa, Human IgG1; also called 77G10D3) heavy: not shown light: DIQLTQSPSFLSASVGDRVTITCRASQGISSYFAWYQQKPGKAPKLLIYAASTLQSGVPSRFSGSGSGTEFTLTISSLQPEDFATYYCQHLNRYPWTFGQGTKVEIKRTVAAPSVFIFPPSDEQLKSGTASVVCLLNNFYPREAKVQWKVDNALQSGNSQESVTEQDSKDSTYSLSSTLTLSKADYEKHKVYACEVTHQGLSSPVTKSFNRGEC
3 | no binding (tested: 10 nM) | no binding (tested: 10 nM) | 3.08 nM | 24000 MFI | ~1 nM | PR004263 (antibody, human IgG1, kappa, L234A L235A, Variant of PR003264; Human IgG1 with LALA mutation in Fc) heavy: not shown light: DIQLTQSPSFLSASVGDRVTITCRASQGISSYFAWYQQKPGKAPKLLIYAASTLQSGVPSRFSGSGSGTEFTLTISSLQPEDFATYYCQHLNRYPWTFGQGTKVEIKRTVAAPSVFIFPPSDEQLKSGTASVVCLLNNFYPREAKVQWKVDNALQSGNSQESVTEQDSKDSTYSLSSTLTLSKADYEKHKVYACEVTHQGLSSPVTKSFNRGEC
